Columns and labels:
[1] = target: T1, human serum albumin (human, UniProt P02768 25-609); test: BIAcore 2000, HSA immobilised on CM5 chip, 40-220 nM ABDwt
T1 construct: Amine-coupled to a CM5 chip, coupled to Sepharose, or loaded in solution onto the ABD columns; also called HSA

[2] = target: T1, human serum albumin; test: Biacore 2000, HSA immobilised on a CM5 chip, analyte at 200 nM, 20 µl/min
[3] = target: T1, human serum albumin; test: BIAcore 2000, HSA immobilised on CM5 chip, 200-600 nM ABDmut

B1: wild type Albumin Binding Protein (ABD) (other)
chain: MKAIFVLNAQHDEAVDANSLAEAKVLANRELDKYGVSDYYKNLINNAKTVEGVKALIDEILAALP
notes: Expressed in E. coli from pTrpABDT1T2; also called ABDwt; unmutated protein
- Ka [1]: 6.9e+07 M⁻¹
- koff [1]: 0.0013 s⁻¹
- kon [1]: 90000 M⁻¹ s⁻¹

B2: ABDmut22-25-26 (designed binder)
chain: MKAIFVLNAQHDEAVDANSLAAAKAAALRELDKYGVSDYYKDLIDKAKTVEGVKALIDEILAALP
notes: also called 22-25-26 A; triple mutant of ABDmut
- binding result [2]: binds

B3: ABDmut (Asn28Leu, Asn42Asp, Asn45Asp, Asn46Lys variant of ABD) (designed binder)
chain: MKAIFVLNAQHDEAVDANSLAEAKVLALRELDKYGVSDYYKDLIDKAKTVEGVKALIDEILAALP
notes: Expressed in E. coli from pTrpABDmutT1T2; also called ABDstab; mutated ABD
- Ka [3]: 1.5e+07 M⁻¹
- koff [3]: 0.0012 s⁻¹
- kon [3]: 18000 M⁻¹ s⁻¹

B4: ABDmut54-57-58 (designed binder)
chain: MKAIFVLNAQHDEAVDANSLAEAKVLALRELDKYGVSDYYKDLIDKAKTVEGVAALAAEILAALP
notes: also called 54-57-58 A; ABDmutS4-57-58
- binding result [2]: binds

Reference: patent US20050100970A1 (Affibody, published 2005)
